Data set [1] concerns HeLa Kyoto. The data set can be described thus: solubility in G1/S (NP-40 vs SDS abundance) (log2 ratio); higher = more soluble. The conditions noted are these: cell cycle stage: G1/S.
Data set [2] concerns HeLa Kyoto. The data set can be described thus: melting temperature (median over replicates), in situ; higher = more thermally stable.
The test system of data set [3] is HeLa Kyoto. The data set can be described thus: solubility change mitosis vs G1/S (difference of NP-40 vs SDS log2 ratios) (log2 ratio difference); higher = more soluble in mitosis.
The test system of data set [4] is HeLa Kyoto. The data set can be described thus: thermal stability score vs G1/S (z-score of summed log2 fold changes over temperatures); higher = more thermally stable than in G1/S.
The mark [5] stands for this setting: cell cycle stage: early G1 (4.5 h after nocodazole release).
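For melting temperature (median over replicates), in situ in this document: HeLa Kyoto cells synchronized by double thymidine or nocodazole block, proteins quantified by TMT10plex mass spectrometry, three independent biological replicates.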
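For solubility change mitosis vs G1/S (difference of NP-40 vs SDS log2 ratios) in this document: synchronized HeLa Kyoto cells (double thymidine block for G1/S, nocodazole release for mitosis), protein amounts in NP-40 versus SDS lysates quantified by mass spectrometry, three biological replicates.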
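For solubility in G1/S (NP-40 vs SDS abundance) in this document: HeLa Kyoto cells arrested at G1/S by double thymidine block, proteins quantified by TMT10plex mass spectrometry in mild NP-40 versus SDS extracts, three biological replicates.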
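For thermal stability score vs G1/S (z-score of summed log2 fold changes over temperatures) in this document: synchronized HeLa Kyoto cells, proteins quantified by TMT10plex mass spectrometry, three biological replicates, mitosis taken 0.5 h after nocodazole release, G1/S directly after double thymidine block.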

Regarding “MQPASAKWYDRRDYVFIEFCVEDSKDVNVNFEKSKLTFSCLGGSDNFKHLNEIDLFHCIDPNDSKHKRTDRSILCCLRKGESGQSWPRLTKERAKLNWLSVDFNNWKDWEDDSDEDMSNFDRFSEMMNNMGGDEDVDLPEVDGADDDSQDSDDEKMPDLE [PTGES3]”, the “solubility in G1/S (log2)” value in data set [1] was 0.0757. Moreover, the melting temperature in data set [2] (cell cycle stage: G1/S) was 48.7 °C; in data set [2] (cell cycle stage: mitosis), 49.9 °C. The “solubility change mitosis (log2)” value in data set [3] is -0.00282. For the same sequence, the thermal stability score is 3.93 in data set [4] (setting [5]) and 3.45 in data set [4] (cell cycle stage: mitosis).

Take “MQPDMSLNVIKMKSSDFLESAELDSGGFGKVSLCFHRTQGLMIMKTVYKGPNCIEHNEALLEEAKMMNRLRHSRVVKLLGVIIEEGKYSLVMEYMEKGNLMHVLKAEMSTPLSVKGRIILEIIEGMCYLHGKGVIHKDLKPENILVDNDFHIKIADLGLASFKMWSKLNNEEHNELREVDGTAKKNGGTLYYMAPEHLNDVNAKPTEKSDVYSFAVVLWAIFANKEPYENAICEQQLIMCIKSGNRPDVDDITEYCPREIISLMKLCWEANPEARPTFPGIEEKFRPFYLSQLEESVEEDVKSLKKEYSNENAVVKRMQSLQLDCVAVPSSRSNSATEQPGSLHSSQGLGMGPVEESWFAPSLEHPQEENEPSLQSKLQDEANYHLYGSRMDRQTKQQPRQNVAYNREEERRRRVSHDPFAQQRPYENFQNTEGKGTAYSSAASHGNAVHQPSGLTSQPQVLYQNNGLYSSHGFGTRPLDPGTAGPRVWYRPIPSHMPSLHNIPVPETNYLGNTPTMPFSSLPPTDESIKYTIYNSTGIQIGAYNYMEIGGTSSSLLDSTNTNFKEEPAAKYQAIFDNTTSLTDKHLDPIRENLGKHWKNCARKLGFTQSQIDEIDHDYERDGLKEKVYQMLQKWVMREGIKGATVGKLAQALHQCSRIDLLSSLIYVSQN [RIPK1]”: the “solubility in G1/S (log2)” value in data set [1] stood at 0.0577. The melting temperature in data set [2] (cell cycle stage: G1/S) was found to be 48.4 °C; in data set [2] (cell cycle stage: mitosis) it was 48 °C. In data set [3], the “solubility change mitosis (log2)” value is -0.114. Also, the figures for the thermal stability score in data set [4] (setting [5]) and in data set [4] (cell cycle stage: mitosis) were 0.9 and 1.82, respectively.

With “MQPWHGKAMQRASEAGATAPKASARNARGAPMDPTESPAAPEAALPKAGKFGPARKSGSRQKKSAPDTQERPPVRATGARAKKAPQRAQDTQPSDATSAPGAEGLEPPAAREPALSRAGSCRQRGARCSTKPRPPPGPWDVPSPGLPVSAPILVRRDAAPGASKLRAVLEKLKLSRDDISTAAGMVKGVVDHLLLRLKCDSAFRGVGLLNTGSYYEHVKISAPNEFDVMFKLEVPRIQLEEYSNTRAYYFVKFKRNPKENPLSQFLEGEILSASKMLSKFRKIIKEEINDIKDTDVIMKRKRGGSPAVTLLISEKISVDITLALESKSSWPASTQEGLRIQNWLSAKVRKQLRLKPFYLVPKHAKEGNGFQEETWRLSFSHIEKEILNNHGKSKTCCENKEEKCCRKDCLKLMKYLLEQLKERFKDKKHLDKFSSYHVKTAFFHVCTQNPQDSQWDRKDLGLCFDNCVTYFLQCLRTEKLENYFIPEFNLFSSNLIDKRSKEFLTKQIEYERNNEFPVFDEF [MB21D1]”, the “solubility in G1/S (log2)” value in data set [1] was -1.72. The melting temperature was determined as 52.6 °C in data set [2] (cell cycle stage: G1/S) and 53.9 °C in data set [2] (cell cycle stage: mitosis). In addition, the “solubility change mitosis (log2)” value in data set [3] is -0.155. The thermal stability score in data set [4] (setting [5]) was -0.379; in data set [4] (cell cycle stage: mitosis), 1.19.

With “MQRLLFPPLRALKGRQYLPLLAPRAAPRAQCDCIRRPLRPGQYSTISEVALQSGRGTVSLPSKAAERVVGRWLLVCSGTVAGAVILGGVTRLTESGLSMVDWHLIKEMKPPTSQEEWEAEFQRYQQFPEFKILNHDMTLTEFKFIWYMEYSHRMWGRLVGLVYILPAAYFWRKGWLSRGMKGRVLALCGLVCFQGLLGWYMVKSGLEEKSDSHDIPRVSQYRLAAHLGSALVLYCASLWTSLSLLLPPHKLPETHQLLQLRRFAHGTAGLVFLTALSGAFVAGLDAGLVYNSFPKMGESWIPEDLFTFSPILRNVFENPTMVQFDHRILGITSVTAITVLYFLSRRIPLPRRTKMAAVTLLALAYTQVGLGISTLLMYVPTPLAATHQSGSLALLTGALWLMNELRRVPK [COX15]”, the “solubility in G1/S (log2)” value in data set [1] was -0.208. Moreover, the melting temperature in data set [2] (cell cycle stage: G1/S) was 56.5 °C; in data set [2] (cell cycle stage: mitosis), 57.9 °C. In addition, the “solubility change mitosis (log2)” value in data set [3] is -0.0819. Also, the thermal stability score in data set [4] (setting [5]) is -2.54; in data set [4] (cell cycle stage: mitosis), -1.54.

Values taken from the supplement of paper PMC5998384.
